Sequences and labels used below:
B1: FITC-MIIA^1904–1927 (nonmuscle myosin-IIA 24mer peptide) (peptide)
peptide: {FITC-Ahx}-TETADAMNREVSSLKNKLRRGDLP-NH2
SMILES: CSCC[C@H](NC(=O)[C@H](C)NC(=O)[C@H](CC(=O)O)NC(=O)[C@H](C)NC(=O)[C@@H](NC(=O)[C@H](CCC(=O)O)NC(=O)[C@@H](NC(=O)CCCCCNC(=S)Nc1ccc2c(c1)C(=O)OC21c2ccc(O)cc2Oc2cc(O)ccc21)[C@@H](C)O)[C@@H](C)O)C(=O)N[C@@H](CC(N)=O)C(=O)N[C@@H](CCCNC(=N)N)C(=O)N[C@@H](CCC(=O)O)C(=O)N[C@H](C(=O)N[C@@H](CO)C(=O)N[C@@H](CO)C(=O)N[C@@H](CC(C)C)C(=O)N[C@@H](CCCCN)C(=O)N[C@@H](CC(N)=O)C(=O)N[C@@H](CCCCN)C(=O)N[C@@H](CC(C)C)C(=O)N[C@@H](CCCNC(=N)N)C(=O)N[C@@H](CCCNC(=N)N)C(=O)NCC(=O)N[C@@H](CC(=O)O)C(=O)N[C@@H](CC(C)C)C(=O)N1CCC[C@H]1C(N)=O)C(C)C
B2: wild-type S100A4 (native noncovalent S100A4 dimer) (natural protein)
chain: not shown
B3: MIIA^1851–1960 (nonmuscle myosin-IIA heavy chain fragment) (domain or fragment, UniProt P35579 1851-1960, looked up)
chain: VDDERRNAEQYKDQADKASTRLKQLKRQLEEAEEEAQRANASRRKLQRELEDATETADAMNREVSSLKNKLRRGDLPFVVPRRMARKGAGDGSDEEVDGKADGAEAKPAE

For series [1], the target named is B2. The experiment in a line: fluorescence polarisation.
In series [2] the target is B2. The experiment in a line: fluorescence polarisation. This is another data set of the same source.
Series [3] concerns the target B1. The experiment in a line: fluorescence polarisation. For orientation: In fluorescence polarisation assays a small probe gives low polarisation when free and higher when bound to something large.
The series “cross-linking” concerns the molecule itself. The experiment in a line: cross-linking.

Like-named read-outs stand apart in the source and are kept apart here. Primed or numbered codes have the meaning given here. *: point of attachment. FITC = O=C1OC2(c3ccc(O)cc3Oc3cc(O)ccc32)c2ccc(NC(=S)*)cc21; FITC′ = fluorescein isothiocyanate label; Ahx = NCCCCCC(=O)O

In turn, B1 showed a Kd in series [1] of 260 ± 30 nM.
Regarding {FITC′-Ahx}-DAMNREVSSLKNKLRR-NH2 [FITC-MIIA^1908–1923 (nonmuscle myosin-IIA peptide, minimal S100A4 binding site)], the affinity in series [2], expressed as Kd, was 1800 ± 200 nM.
As to B2, the “stoichiometry N” value in series [3] came to 1 S100A4 dimer per peptide.
For B3, the “stoichiometry N” value in the series “cross-linking” turned out to be 2.

In general, Kd refers to the free concentration of one partner at which half of the binding sites on the other are occupied at equilibrium, for simple one-to-one binding. The low end stands for tighter binding, the high end for weaker binding. The term stoichiometry N denotes the number of molecules, sites or subunits per partner or assembly.

The values are drawn from PMC3227520 (Biochemistry, 2011).
